Measured values from the supplement of paper PMC7877785.
± gives the uncertainty stated by the source.

Assay: self-splicing fitness, log relative to wild type (ln ratio); higher = more splicing; Tetrahymena group I intron in knt gene, E. coli kanamycin selection, DiMSum; sequences stand for … in CUCUCU…GGAGGGAAAAGUUAUCAGGCAUGCACCUGGUAGCUAGUCUUUAAACCAAUAGAUUGCAUCGGUUUAAAAGGCAAGACCGUCAAAUUGCGGGAAAGGGGUCAACAGCCGUUCAGUACCAAGUCUCAGGGGAAACUUUGAGAUGGCCUUGCAAAGGGUAUGGUAAUAAGCUGACGGACAUGGUCCUAACCACGCAGCCAAGUCCUAAGUCAACAGAUCUUCUGUUGAUAUGGAUGCAGUUCACAGACUAAAUGUCGGUCGGGGAAGAUGUAUUCUUCUCAUAAGAUAUAGUCGGACCUCUCCUUAAUGGGAGCUAGCGGAUGAAGUGAUGCAACACUGGAGCCGCUGGGAACUAAUUUGUAUGCGAAAGUAUAUUGAUUAGUUUUGGAGUACUCGUGGUCG
How it was run: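 Colonies from six replicate transformations of E. coli BL21(DE3) were pooled and amplicon-sequenced on an Illumina HiSeq 2500. The library placed an intron with all eight P1ex-region nucleotides randomised inside the knt kanamycin-resistance gene on pET-22b(+), and cells grew overnight at 37°C or 30°C on LB agar with or without 25 μg/mL kanamycin (plus 100 μg/mL carbenicillin, 50 μM IPTG, 0.2% rhamnose). Fitness is the DiMSum error-weighted combination of wild-type-normalised replicate fold changes, kanamycin versus none.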

Sequence | self-splicing fitness (ln) (30 °C) | self-splicing fitness (ln) (37 °C)
ACGGAGCAAUAUUACGGUCC | -3.38 ± 0.36 | -1.39 ± 0.34
AGGGAGCAAUAUUACGUAAG | -3.17 ± 0.2 | -2.28 ± 0.3
GAAAAGCAAUAUUACGUGGU | -3.58 ± 0.17 | -2.79 ± 0.2
CUUUAGCAAUAUUACGGUUU | -2.79 ± 0.21 | -2.71 ± 0.24
GCAUAGCAAUAUUACGCUUC | – | -2.69 ± 0.19
AAAUAGCAAUAUUACGAAGU | -2.55 ± 0.18 | -2.16 ± 0.2
GCGAAGCAAUAUUACGGUAC | -2.89 ± 0.17 | -1.2 ± 0.15
ACGCAGCAAUAUUACGUGCC | -1.7 ± 0.11 | -0.959 ± 0.12
GUAGAGCAAUAUUACGAAGC | -2.62 ± 0.24 | -0.723 ± 0.26
GGUAAGCAAUAUUACGUCCG | -0.859 ± 0.11 | -0.41 ± 0.15
CUUAAGCAAUAUUACGGAAC | – | -1.89 ± 0.3
GCGUAGCAAUAUUACGUGGC | -3.48 ± 0.23 | -2.75 ± 0.31
AGACAGCAAUAUUACGGGCA | -1.18 ± 0.075 | -0.503 ± 0.079
UGAAAGCAAUAUUACGCUAC | -3.01 ± 0.28 | -1.75 ± 0.33
GGUGAGCAAUAUUACGGAGU | -3.25 ± 0.26 | -1.9 ± 0.19
GCCCAGCAAUAUUACGUAUU | -2.02 ± 0.066 | -0.786 ± 0.074
UAAGAGCAAUAUUACGUGGG | -3.82 ± 0.42 | -2.68 ± 0.27
AUACAGCAAUAUUACGAACU | -0.142 ± 0.079 | 0.0661 ± 0.099
UCUAAGCAAUAUUACGAAAU | -3.53 ± 0.32 | –
GCUGAGCAAUAUUACGGUUU | -1.86 ± 0.075 | -1.25 ± 0.095
AGUAAGCAAUAUUACGCCAU | -2.81 ± 0.2 | -1.93 ± 0.22
GACUAGCAAUAUUACGCGUC | -3.14 ± 0.16 | -2.78 ± 0.23
GGCCAGCAAUAUUACGCCCA | -2.11 ± 0.35 | -0.809 ± 0.25
GGUAAGCAAUAUUACGUGUU | -1.4 ± 0.075 | -0.901 ± 0.083
UUACAGCAAUAUUACGCAAA | -1.83 ± 0.17 | -0.688 ± 0.12
CGACAGCAAUAUUACGAGCU | -2.86 ± 0.15 | -2.17 ± 0.17

Sequence | self-splicing fitness (ln) (30 °C) | self-splicing fitness (ln) (37 °C)
CGUGAGCAAUAUUACGACUA | -2.94 ± 0.47 | -1.94 ± 0.36
ACAAAGCAAUAUUACGAGCU | -0.866 ± 0.066 | -0.624 ± 0.097
GCUUAGCAAUAUUACGCGCA | -1.37 ± 0.16 | 0.00629 ± 0.17
CCAAAGCAAUAUUACGUGGC | -1.62 ± 0.098 | -2.29 ± 0.21
CGAAAGCAAUAUUACGUAGC | -3.4 ± 0.29 | -2.39 ± 0.27
UUAAAGCAAUAUUACGAAUG | -0.609 ± 0.096 | 0.0465 ± 0.14
UAGGAGCAAUAUUACGCUCG | -1.49 ± 0.21 | 0.196 ± 0.24
UGCUAGCAAUAUUACGUGGA | -3 ± 0.19 | -2.44 ± 0.15
GCGCAGCAAUAUUACGUACU | -1.32 ± 0.072 | -0.505 ± 0.092
CACUAGCAAUAUUACGACAA | -3.16 ± 0.37 | -2.06 ± 0.29
UGGAAGCAAUAUUACGAGUU | -3.25 ± 0.19 | -1.8 ± 0.16
GAUCAGCAAUAUUACGCAAC | -1.5 ± 0.13 | -0.455 ± 0.17
GACUAGCAAUAUUACGUAGA | -0.815 ± 0.077 | -1.17 ± 0.097
GCAGAGCAAUAUUACGAGCA | -2.32 ± 0.24 | -2.4 ± 0.34
CUCUAGCAAUAUUACGCAUG | -4.85 ± 0.41 | -3.07 ± 0.3
CUCUAGCAAUAUUACGCCAA | -2.35 ± 0.47 | -2.31 ± 0.45
AUCAAGCAAUAUUACGUGCU | -2.33 ± 0.088 | -1.7 ± 0.11
CGAGAGCAAUAUUACGUCAA | -3.22 ± 0.21 | -2.4 ± 0.27
GUUCAGCAAUAUUACGUGGG | -2.07 ± 0.13 | -1.92 ± 0.15
CUAGAGCAAUAUUACGUCCC | – | -1.71 ± 0.47
CGCAAGCAAUAUUACGAGAA | – | -2.03 ± 0.42
GAGAAGCAAUAUUACGCUAC | -3.38 ± 0.18 | -1.58 ± 0.18
ACAUAGCAAUAUUACGUUAG | -3.66 ± 0.17 | -1.66 ± 0.14
UUUUAGCAAUAUUACGUACA | -2.16 ± 0.15 | -0.143 ± 0.2
GUGGAGCAAUAUUACGGCAU | -2.46 ± 0.13 | -2.62 ± 0.17
UCCUAGCAAUAUUACGGAAG | -3.41 ± 0.28 | -1.23 ± 0.43

Sequence | self-splicing fitness (ln) (30 °C) | self-splicing fitness (ln) (37 °C)
GUCGAGCAAUAUUACGUAAU | -0.411 ± 0.065 | -0.515 ± 0.09
AUCCAGCAAUAUUACGCAUU | -1.37 ± 0.064 | -0.265 ± 0.082
GUACAGCAAUAUUACGCGUA | -3.44 ± 0.32 | -1.71 ± 0.24
CUUAAGCAAUAUUACGCCGG | -4.01 ± 0.33 | -1.85 ± 0.25
GAGGAGCAAUAUUACGCGGG | -2.11 ± 0.31 | -2.66 ± 0.34
UACUAGCAAUAUUACGUCGC | -4.8 ± 0.46 | -3.62 ± 0.24
GUAAAGCAAUAUUACGAUCU | 0.147 ± 0.057 | 0.161 ± 0.069
GGCAAGCAAUAUUACGUCGU | -0.68 ± 0.097 | 0.0841 ± 0.11
CACUAGCAAUAUUACGGAGU | -3.63 ± 0.18 | -2.14 ± 0.16
UGUUAGCAAUAUUACGUCUU | -2.21 ± 0.15 | -1.46 ± 0.13
AAGAAGCAAUAUUACGCCCC | -0.875 ± 0.12 | -0.358 ± 0.17
UUUUAGCAAUAUUACGAUUU | -1.67 ± 0.16 | -0.611 ± 0.21
AUUGAGCAAUAUUACGUUCA | -1.59 ± 0.17 | -0.11 ± 0.17
ACCGAGCAAUAUUACGUGCA | -2.45 ± 0.13 | -1.79 ± 0.12
AUCCAGCAAUAUUACGACUG | -3.86 ± 0.3 | -2.95 ± 0.28
GUCUAGCAAUAUUACGUAUG | -2.94 ± 0.18 | -0.896 ± 0.13
CAUUAGCAAUAUUACGAGUU | -3.7 ± 0.17 | -2.67 ± 0.18
CAAGAGCAAUAUUACGCUGU | -3.93 ± 0.36 | -2.34 ± 0.24
CGACAGCAAUAUUACGCGGU | -4.5 ± 0.15 | -2.85 ± 0.14
GAGUAGCAAUAUUACGGGGG | – | -3.08 ± 0.35
AAUAAGCAAUAUUACGACGC | -0.19 ± 0.093 | 0.0933 ± 0.12
AUCUAGCAAUAUUACGUUUG | -3.39 ± 0.28 | -2.04 ± 0.37
CUGCAGCAAUAUUACGCUUC | – | -1.03 ± 0.21
UGCUAGCAAUAUUACGUACU | -0.707 ± 0.075 | -0.893 ± 0.089
AUCUAGCAAUAUUACGACCC | -0.615 ± 0.21 | 0.543 ± 0.31
